Measured values reported in the supplement of paper PMC10724198.
± gives the standard deviation of the averaged measurements.

What follows are sequences tested on Saccharomyces cerevisiae (assay: protein stability index of tFT-peptide fusion (C-terminal peptide) (PSI (0-1 scale)); higher = more stable (slower turnover)). Conditions: genetic background: das1 deletion; temperature: 30 C.
Protocol: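 MPS profiling in S. cerevisiae of the tFT-X12 degron library: putative degron peptides plus stable controls, 12 aa, fused to the C-terminus of a sfGFP-mCherry timer. Cells are FACS-sorted into 8 mCherry/sfGFP bins and deep-sequenced. PSI runs from 0 (unstable) to 1 (stable). Backgrounds are wild type, das1Δ and doa10Δ at 30 °C, and wild type, das1Δ, cdc34-1 and cdc53-1 at 37 °C; 2-3 technical replicates each.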
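Further: PSI is a weighted mean of sequencing reads over stability bins, variants kept only with over 10 reads, mCherry proximal and sfGFP distal, peptide attached via GGGS linker.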

Sequence | protein stability index
PTLPASLHSIYP | 0.684 ± 0.028
PTYSCSIKIQAH | 0.407 ± 0.03
PWGSHLYYVVCI | 0.238 ± 0.03
PWWDALLRARVC | 0.435 ± 0.021
PYVHPFRCYWVL | 0.621 ± 0.02
QCSPGLPHAQGL | 0.634 ± 0.024
QGPHISQYRTHR | 0.6413 ± 0.0052
QHRAIKIEIKIN | 0.571 ± 0.048
QVLISLYVHGYF | 0.453 ± 0.047
RCCWWNAQAVWR | 0.638 ± 0.029
RCLHTSVFLIFP | 0.476 ± 0.038
RDASLLFHFFVC | 0.614 ± 0.012
REGDLLKFKMRP | 0.637 ± 0.024
RFFVRRVRVAVL | 0.553 ± 0.055
RFICMMYLVYLC | 0.192 ± 0.03
RFLPYLPTPLSP | 0.506 ± 0.016
RGAVLLPSLWVV | 0.577 ± 0.027
RGCLVHSGFFIV | 0.62 ± 0.018
RGGVLYVSIRCK | 0.228 ± 0.032
RIHRRLIKNKRV | 0.71 ± 0.036
RIVSGVVLLVFV | 0.237 ± 0.019
RKGQNKKRNKIY | 0.659 ± 0.008
RKWLFFRSWRYV | 0.626 ± 0.028
RLFIIYLLNIQG | 0.311 ± 0.022
RLFSPPVLATPS | 0.525 ± 0.031
RLIAVAGVVVVA | 0.425 ± 0.025

Sequence | protein stability index
RLLSIFKILHVG | 0.638 ± 0.013
RLRHPPRLSTLC | 0.629 ± 0.029
RLSTPFTVNHFI | 0.696 ± 0.031
RLVPFMAVRVLF | 0.517 ± 0.013
RRVRVVCVIVAA | 0.238 ± 0.041
RSFNVGLELLVW | 0.295 ± 0.05
RTWFTYMSIPVW | 0.234 ± 0.026
RVFGWIEVEVEG | 0.403 ± 0.023
RVFRLDRRLQVV | 0.509 ± 0.018
RVGSSLIVVYCV | 0.264 ± 0.034
RVLCLVSSLTLF | 0.413 ± 0.027
RWTKMNNLIIEF | 0.667 ± 0.013
RWVFAGVGLFVG | 0.605 ± 0.0071
SCFDRQIFVPVC | 0.302 ± 0.033
SDLQVMKLRSVC | 0.619 ± 0.025
SFFYFVFYYLSF | 0.259 ± 0.015
SFIFFVSCFFIF | 0.294 ± 0.029
SFLRVRSLISCS | 0.223 ± 0.025
SFSRLWSLFRCL | 0.682 ± 0.014
SFVCFSYYIVNI | 0.377 ± 0.021
SFVLLSSFLVFV | 0.262 ± 0.02
SGFLNVGYLWVC | 0.482 ± 0.025
SIFLCRLQNLLI | 0.632 ± 0.0083
SILVSIFILAMQ | 0.229 ± 0.043
SIRVIVAVRNIS | 0.554 ± 0.023
SISVQCSMLRVL | 0.389 ± 0.048

Sequence | protein stability index
SLARLRRICFNT | 0.648 ± 0.031
SLRPFFPPLPRP | 0.69 ± 0.033
SLVPSIFLFRIF | 0.544 ± 0.028
SLVVMGSLWLRI | 0.346 ± 0.081
SMGVLITYLVQV | 0.324 ± 0.024
SMPWFWFVRGIG | 0.5 ± 0.017
SNFDVRRLLVIQ | 0.588 ± 0.021
SPSTPQALSNFS | 0.657 ± 0.032
SPTIFLPLFLTS | 0.397 ± 0.028
SRARIRLPRILS | 0.661 ± 0.026
SSLTFTFAILLY | 0.207 ± 0.025
STLPACNCLKLL | 0.622 ± 0.011
STNMDNRIRTLA | 0.638 ± 0.031
SVIVSSFFLWVF | 0.298 ± 0.03
SVLVWFLVFLVW | 0.223 ± 0.028
SVVYCRMRVHFV | 0.373 ± 0.015
SWGEQDRLTGYI | 0.689 ± 0.024
SWMFKLCIQWNV | 0.502 ± 0.011
SWSLRLSTIFSV | 0.612 ± 0.025
SYFASLLDLFTA | 0.66 ± 0.011
TDSSWEVSLMVG | 0.612 ± 0.012
TDVLLLQLLISV | 0.225 ± 0.028
TGPLVHLLCCCV | 0.313 ± 0.028
TKKGQTRPSRTD | 0.642 ± 0.034
TLKRCFRWCRTT | 0.672 ± 0.018
TLSRTPVSPSAP | 0.637 ± 0.018

Same assay, conditions: genetic background: das1 deletion; temperature: 37 C

Sequence | protein stability index
PTLPASLHSIYP | 0.698 ± 0.021
PTYSCSIKIQAH | 0.5503 ± 0.0049
PWGSHLYYVVCI | 0.3371 ± 0.0028
PWWDALLRARVC | 0.625 ± 0.019
PYVHPFRCYWVL | 0.7396 ± 0.0015
QCSPGLPHAQGL | 0.733 ± 0.014
QGPHISQYRTHR | 0.745 ± 0.025
QHRAIKIEIKIN | 0.672 ± 0.02
QVLISLYVHGYF | 0.51 ± 0.017
RCCWWNAQAVWR | 0.752 ± 0.0039
RCLHTSVFLIFP | 0.604 ± 0.021
RDASLLFHFFVC | 0.726 ± 0.011
REGDLLKFKMRP | 0.716 ± 0.018
RFFVRRVRVAVL | 0.687 ± 0.0081
RFICMMYLVYLC | 0.3 ± 0.016
RFLPYLPTPLSP | 0.5974 ± 0.0048
RGAVLLPSLWVV | 0.7355 ± 0.0068
RGCLVHSGFFIV | 0.6898 ± 0.0051
RGGVLYVSIRCK | 0.397 ± 0.0054
RIHRRLIKNKRV | 0.739 ± 0.041
RIVSGVVLLVFV | 0.5234 ± 0.0034
RKGQNKKRNKIY | 0.7331 ± 0.0033
RKWLFFRSWRYV | 0.7486 ± 0.0024
RLFIIYLLNIQG | 0.544 ± 0.022
RLFSPPVLATPS | 0.696 ± 0.021
RLIAVAGVVVVA | 0.5685 ± 0.0055

Sequence | protein stability index
RLLSIFKILHVG | 0.705 ± 0.014
RLRHPPRLSTLC | 0.73873 ± 0.00026
RLSTPFTVNHFI | 0.766 ± 0.0088
RLVPFMAVRVLF | 0.6492 ± 0.0023
RRVRVVCVIVAA | 0.4735 ± 0.0028
RSFNVGLELLVW | 0.449 ± 0.0063
RTWFTYMSIPVW | 0.341 ± 0.01
RVFGWIEVEVEG | 0.5679 ± 0.0026
RVFRLDRRLQVV | 0.638 ± 0.012
RVGSSLIVVYCV | 0.502 ± 0.0096
RVLCLVSSLTLF | 0.612 ± 0.017
RWTKMNNLIIEF | 0.742 ± 0.042
RWVFAGVGLFVG | 0.7241 ± 0.0046
SCFDRQIFVPVC | 0.461 ± 0.013
SDLQVMKLRSVC | 0.714 ± 0.026
SFFYFVFYYLSF | 0.364 ± 0.017
SFIFFVSCFFIF | 0.451 ± 0.024
SFLRVRSLISCS | 0.404 ± 0.021
SFSRLWSLFRCL | 0.752 ± 0.014
SFVCFSYYIVNI | 0.564 ± 0.022
SFVLLSSFLVFV | 0.39553 ± 9.9e-06
SGFLNVGYLWVC | 0.644 ± 0.017
SIFLCRLQNLLI | 0.734 ± 0.018
SILVSIFILAMQ | 0.412 ± 0.0063
SIRVIVAVRNIS | 0.663 ± 0.0092
SISVQCSMLRVL | 0.482 ± 0.0086

Sequence | protein stability index
SLARLRRICFNT | 0.719 ± 0.023
SLRPFFPPLPRP | 0.7305 ± 0.0014
SLVPSIFLFRIF | 0.682 ± 0.0094
SLVVMGSLWLRI | 0.463 ± 0.024
SMGVLITYLVQV | 0.51 ± 0.015
SMPWFWFVRGIG | 0.557 ± 0.0094
SNFDVRRLLVIQ | 0.697 ± 0.0065
SPSTPQALSNFS | 0.7376 ± 0.0054
SPTIFLPLFLTS | 0.522 ± 0.016
SRARIRLPRILS | 0.72403 ± 0.00037
SSLTFTFAILLY | 0.339 ± 0.015
STLPACNCLKLL | 0.741 ± 0.013
STNMDNRIRTLA | 0.72 ± 0.013
SVIVSSFFLWVF | 0.482 ± 0.0072
SVLVWFLVFLVW | 0.3733 ± 0.0037
SVVYCRMRVHFV | 0.432 ± 0.014
SWGEQDRLTGYI | 0.787 ± 0.0083
SWMFKLCIQWNV | 0.5321 ± 0.00098
SWSLRLSTIFSV | 0.667 ± 0.0072
SYFASLLDLFTA | 0.766 ± 0.018
TDSSWEVSLMVG | 0.733 ± 0.016
TDVLLLQLLISV | 0.338 ± 0.018
TGPLVHLLCCCV | 0.3955 ± 0.0013
TKKGQTRPSRTD | 0.705 ± 0.017
TLKRCFRWCRTT | 0.699 ± 0.0095
TLSRTPVSPSAP | 0.706 ± 0.021
